Tests used:
[1] = target: plasma kallikrein (Homo sapiens, UniProt P03952); assay: Inhibition of enzyme activity of pre-activated plasma (compound added after DXS); type: biochemical; details: added 3.5 minutes post DXS; compound 300, 1000, 3000 nM; C1-INH 3000 nM
Description: The ability of the compound to inhibit the enzyme activity of pre-activated plasma was assessed by addition of the compound after DXS stimulation. Aliquots of plasma (20 μL) were mixed with a 2.5 μL solution containing […] fluorogenic substrate (H-DPro-Phe-Arg-AFC) and a 2.5 μL solution of dextran sulphate (DXS; 100 μg/mL) which acted as an activator of the plasma kallikrein-kinin pathway. Enzyme activity was immediately measured by monitoring the accumulation of fluorescence liberated from the substrate by substrate cleavage over 16 minutes. At 3.5 minutes post DXS addition 5 μl of inhibitors or water control are were added into each well. The compound was tested at concentrations of 300, 1000 and 3000 nM. C1-INH at a concentration of 3000 nM and vehicle controls were also included.

[2] = background, literature or label; cited from earlier work
[3] = phase 1 studies, repeat dosing; cited from earlier work

Chain of plasma kallikrein (P03952 391-638 limits assumed): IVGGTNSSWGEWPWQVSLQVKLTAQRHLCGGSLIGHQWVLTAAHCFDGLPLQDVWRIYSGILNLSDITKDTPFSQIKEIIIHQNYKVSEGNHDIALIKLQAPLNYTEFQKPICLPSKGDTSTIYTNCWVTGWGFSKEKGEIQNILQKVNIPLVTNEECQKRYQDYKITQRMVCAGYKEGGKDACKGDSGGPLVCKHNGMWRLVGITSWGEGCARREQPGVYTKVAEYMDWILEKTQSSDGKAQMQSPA
Chain of plasma kallikrein (P03952 20-390 partner limits assumed): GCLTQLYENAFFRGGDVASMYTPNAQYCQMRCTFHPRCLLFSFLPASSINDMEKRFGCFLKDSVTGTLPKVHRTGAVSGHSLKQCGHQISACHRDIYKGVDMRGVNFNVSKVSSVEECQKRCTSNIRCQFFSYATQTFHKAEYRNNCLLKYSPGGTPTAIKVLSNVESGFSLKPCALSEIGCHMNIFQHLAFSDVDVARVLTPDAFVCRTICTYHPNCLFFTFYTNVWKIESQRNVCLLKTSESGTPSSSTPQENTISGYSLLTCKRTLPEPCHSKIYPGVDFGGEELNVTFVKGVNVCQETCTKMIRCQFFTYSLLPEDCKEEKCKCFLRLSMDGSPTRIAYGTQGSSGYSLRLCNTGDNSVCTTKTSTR

| Molecule | reported adverse reactions [2] | also measured |
| --- | --- | --- |
| C1-INH: C1 inhibitor (C1-INH, Sigma Cat #E0518), therapeutic benchmark for HAE [Compound C1-INH] |  | inhibition of enzyme activity after activation of plasma [1]: slower action |
| N#Cc1cccc([C@@H](NCC2CC2)c2ccc(F)c(NC(=O)c3cc(C(F)(F)F)nn3-c3cccc(CN)c3)c2)c1 [Berotralstat] | higher doses were associated with more gastrointestinal adverse effects |  |
| Ecallantide | risk of anaphylactic reactions |  |
| COCc1nn(Cc2ccc(Cn3cc(F)ccc3=O)cc2)cc1C(=O)NCc1nccc(OC)c1F [KVD824, 1-({4-[(5-fluoro-2-oxopyridin-1-yl)methyl]phenyl}methyl)-N-[(3-fluoro-4-methoxypyridin-2-yl)methyl]-3-(methoxymethyl)pyrazole-4-carboxamide] |  | pharmacokinetic profile [3]: consistent pharmacokinetic profile over repeat dosing |
| lanadelumab: recombinant fully human IgG1 kappa light chain monoclonal antibody, active substance of Takhzyro® (antibody, chains of the INN, looked up, V domains shown) VH: EVQLLESGGGLVQPGGSLRLSCAASGFTFSHYIMMWVRQAPGKGLEWVSGIYSSGGITVYADSVKGRFTISRDNSKNTLYLQMNSLRAEDTAVYYCAYRRIGVPRRDEFDIWGQGTMVTVSS VL: DIQMTQSPSTLSASVGDRVTITCRASQSISSWLAWYQQKPGKAPKLLIYKASTLESGVPSRFSGSGSGTEFTLTISSLQPDDFATYYCQQYNTYWTFGQGTKVEIK | hypersensitivity, injection site pain, injection site erythema, and injection site bruising |  |

From patent US20240122909A1, “TREATMENTS OF HEREDITARY ANGIOEDEMA” (KALVISTA PHARMACEUTICALS LIMITED, priority 2021, published 2024)
